# Literature values as cited in US7235367B2, “Method using crystal structure of estrogen receptor-β complex” (Genetics Institute, LLC., priority 2000, dated 2007).
# Target: ER-β (Homo sapiens, UniProt Q92731)
# Conditions: co-activator, ER-β versus ER-α
# Chain of ER-β (Q92731 whole entry): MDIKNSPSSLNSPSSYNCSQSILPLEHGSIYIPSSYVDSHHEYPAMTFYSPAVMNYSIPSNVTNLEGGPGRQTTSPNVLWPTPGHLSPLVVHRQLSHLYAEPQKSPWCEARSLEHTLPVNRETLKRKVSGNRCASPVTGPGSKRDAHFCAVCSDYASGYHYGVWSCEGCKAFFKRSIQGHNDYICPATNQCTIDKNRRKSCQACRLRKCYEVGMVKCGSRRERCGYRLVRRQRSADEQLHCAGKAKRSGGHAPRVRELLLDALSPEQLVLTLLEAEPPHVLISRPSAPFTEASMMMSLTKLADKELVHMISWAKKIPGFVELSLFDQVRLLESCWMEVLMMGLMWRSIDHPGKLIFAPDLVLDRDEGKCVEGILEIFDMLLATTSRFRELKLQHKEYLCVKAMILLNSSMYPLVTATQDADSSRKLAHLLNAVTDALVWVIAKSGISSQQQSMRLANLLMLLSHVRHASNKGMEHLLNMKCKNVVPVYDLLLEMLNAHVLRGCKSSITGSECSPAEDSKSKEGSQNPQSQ
substance,measurement,value
SRC-1: co-activator protein that preferentially activates ER-β,preferential activation of ER subtype,preferentially activates ER-β
